Literature values in PMC6302113.

Target: IL-22 (Homo sapiens) (UniProt Q9GZX6)
Chain of UniProt Q9GZX6 (Q9GZX6 34-179): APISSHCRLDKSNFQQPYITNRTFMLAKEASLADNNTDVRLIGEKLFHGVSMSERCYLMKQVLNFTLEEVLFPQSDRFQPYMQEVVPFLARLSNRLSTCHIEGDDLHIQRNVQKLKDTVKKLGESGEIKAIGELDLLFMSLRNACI

In the case of IL-22BPi2 (from UniProt Q969J5), the Kd is given as 1 pM.
